Each block holds one molecule with its values, some of them ahead of it.
What was measured:
matriptase [1] = molecular target: T1, matriptase (Homo sapiens, UniProt Q9Y5Y6); experiment: Gelatin zymography of matriptase/HAI-1 preparation; assay type: biochemical
T1 construct: from tissue; host or cells: human milk
T1 sequence (Q9Y5Y6 615-855 limits assumed): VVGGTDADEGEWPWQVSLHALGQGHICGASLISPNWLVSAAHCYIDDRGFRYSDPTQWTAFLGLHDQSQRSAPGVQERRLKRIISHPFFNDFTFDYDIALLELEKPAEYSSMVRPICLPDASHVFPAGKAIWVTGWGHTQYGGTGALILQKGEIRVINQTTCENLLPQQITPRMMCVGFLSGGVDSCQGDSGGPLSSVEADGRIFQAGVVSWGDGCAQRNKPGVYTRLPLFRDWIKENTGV
T1 sequence (Q9Y5Y6 190-614 partner limits assumed): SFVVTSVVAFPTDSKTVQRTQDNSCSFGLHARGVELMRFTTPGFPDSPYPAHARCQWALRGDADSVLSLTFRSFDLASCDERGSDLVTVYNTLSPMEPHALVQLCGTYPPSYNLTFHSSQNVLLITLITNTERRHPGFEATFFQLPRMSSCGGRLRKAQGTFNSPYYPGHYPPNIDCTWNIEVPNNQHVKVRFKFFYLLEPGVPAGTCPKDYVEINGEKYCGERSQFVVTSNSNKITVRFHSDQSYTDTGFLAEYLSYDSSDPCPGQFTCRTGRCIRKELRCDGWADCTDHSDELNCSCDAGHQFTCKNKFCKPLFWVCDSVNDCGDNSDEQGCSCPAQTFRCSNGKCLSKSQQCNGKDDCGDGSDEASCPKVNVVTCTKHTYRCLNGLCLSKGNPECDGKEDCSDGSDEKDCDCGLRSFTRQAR
Description: (§1) Matriptase and HAI-1 were isolated from human milk by anti-matriptase mAb 21-9 immunoaffinity chromatography, as described in Example 1, and were maintained in an uncomplexed status in elution buffer, 0.1 M glycine, pH 2.4. This preparation was brought to pH 8.5, incubated at 37° C. for 0, 5, 30 and 60 min., and subjected to immunoblotting using anti-matriptase mAb 21-9 (panel A), gelatin zymography (panel B), and to a cleavage rate assay using the synthetic, fluorescent substrate, BOC—Gin—Ala—Agr-7-amido 4-methylcoumarin (panel C). […] A milk-derived, matriptase-related 110-kDa protease (as indicated in panel A), which was not a complex of matriptase and HAI-1, and whose migration on SDS gel was reduced after boiling (see Example 1).
Gelatin zymography: Gelatin zymography was carried out as previously described with some modifications (Brown et al., Biochem J. 101: 214-228 (1966)). Gelatin (1 mg/ml), as a substrate, was copolymerized with regular SDS-polyacrylamide gel. Electrophoresis was performed at a constant current of 15 mA. The gelatin gels were washed 3 times with PBS containing 2% Triton X-100 and incubated in PBS at 37° C. overnight.
Inhibition of matriptase activity by the interaction with HAI-1: HAI-1, a protein containing contains two protease inhibitory domains (Kunitz domains), was initially identified as a binding protein of matriptase. […]

matriptase [2] = molecular target: T1, matriptase; experiment: Cleavage rate assay with fluorescent substrate BOC-Gln-Ala-Arg-AMC after matriptase/HAI-1 complex formation; assay type: biochemical; details: pH 8.5
Description: as §1
Proteolytic activity of matriptase determined by cleavage of trypsin substrate, BOC—Gln—Ala—Arg—AMC: A variety of synthetic, fluorescent protease substrates with arginine or lysine as P1 sites can be cleaved by matriptase, as described in Example 2. Among these substrates, t-butyloxycarbonyl (BOC)—Gln—Ala—Arg-7-amino-4-methylcoumarin (Sigma; St. Louis, Mo.) is likely to be the best one. Using this substrate, matriptase was assayed in 20 mM Tris buffer pH 8.5 at 25° C. in a total volume of 200 μl. The final substrate concentration was 0.1 mM. The rate of cleavage was determined with a fluorescence spectrophotometer (Hitachi, F-4500). […]

matriptase [3] = molecular target: T2, matriptase (Homo sapiens, UniProt Q9Y5Y6); experiment: Fluorescent substrate assay and zymography with BBI; assay type: biochemical
T2 sequence (Q9Y5Y6 1-855): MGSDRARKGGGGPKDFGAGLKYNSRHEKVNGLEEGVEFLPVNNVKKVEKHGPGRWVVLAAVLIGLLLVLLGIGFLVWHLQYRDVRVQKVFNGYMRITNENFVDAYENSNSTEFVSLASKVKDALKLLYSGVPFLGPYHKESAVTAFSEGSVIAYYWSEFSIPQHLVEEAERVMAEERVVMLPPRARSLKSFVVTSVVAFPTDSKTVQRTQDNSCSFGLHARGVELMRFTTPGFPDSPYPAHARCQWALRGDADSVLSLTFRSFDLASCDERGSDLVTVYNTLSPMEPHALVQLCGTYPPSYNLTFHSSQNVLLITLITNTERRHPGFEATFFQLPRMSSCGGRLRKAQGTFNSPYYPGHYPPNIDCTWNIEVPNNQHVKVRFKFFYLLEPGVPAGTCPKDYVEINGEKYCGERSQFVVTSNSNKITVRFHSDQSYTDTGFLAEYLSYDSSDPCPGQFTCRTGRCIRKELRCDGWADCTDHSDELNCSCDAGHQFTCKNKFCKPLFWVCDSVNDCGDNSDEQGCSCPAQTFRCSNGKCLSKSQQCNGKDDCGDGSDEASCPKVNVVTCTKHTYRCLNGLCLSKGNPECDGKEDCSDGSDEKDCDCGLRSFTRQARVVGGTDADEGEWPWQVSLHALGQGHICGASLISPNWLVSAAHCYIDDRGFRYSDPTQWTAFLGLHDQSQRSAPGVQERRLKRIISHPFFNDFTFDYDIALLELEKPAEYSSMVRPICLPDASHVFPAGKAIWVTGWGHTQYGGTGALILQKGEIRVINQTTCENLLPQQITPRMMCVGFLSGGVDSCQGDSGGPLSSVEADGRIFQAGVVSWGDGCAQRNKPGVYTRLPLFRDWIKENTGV
Description: A concentrate of BBI, BBIC, can be administered in dosage sufficient to obtain a blood level of 0.001 to 1 mM concentration of BBI in the blood as a means of inhibiting tumor initiation in a susceptible to breast cancer. As indicated by presence of matriptase in nipple aspirate or in tissue from biopsy, including tissue from needle biopsy. […] BBI interacts directly with the serine protease active site on matriptase.

human plasma kallikrein = human plasma kallikrein (Homo sapiens, UniProt P03952); details: cited from earlier work
human plasmin = human plasmin (Homo sapiens, UniProt P00747); details: cited from earlier work
human tissue kallikrein = human tissue kallikrein (Homo sapiens, UniProt P06870); details: cited from earlier work
human factor XIa = human factor XIa (Homo sapiens, UniProt P03951); details: cited from earlier work
[4] = molecular target: T3, soybean-derived Bowman-Birk inhibitor (BBI), P01055
T3 chain: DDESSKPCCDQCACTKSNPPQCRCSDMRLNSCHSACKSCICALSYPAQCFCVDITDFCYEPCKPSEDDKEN

[5] = molecular target: T4, 40-kDa fragment of hepatocyte growth factor activator inhibitor-1 (HAI-1)
T4 chain: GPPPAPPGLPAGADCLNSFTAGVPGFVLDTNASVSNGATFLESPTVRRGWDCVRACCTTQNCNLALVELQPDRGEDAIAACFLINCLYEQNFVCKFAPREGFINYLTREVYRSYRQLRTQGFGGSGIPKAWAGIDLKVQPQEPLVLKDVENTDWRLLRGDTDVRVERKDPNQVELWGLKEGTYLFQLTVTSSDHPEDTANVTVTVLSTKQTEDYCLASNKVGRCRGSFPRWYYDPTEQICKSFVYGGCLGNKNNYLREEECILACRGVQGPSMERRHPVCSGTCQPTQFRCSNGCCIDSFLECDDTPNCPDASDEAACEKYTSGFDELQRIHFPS

[6] = after 30 and 60 min incubation at 37° C.

Chain of human plasmin (P00747 581-810 limits assumed): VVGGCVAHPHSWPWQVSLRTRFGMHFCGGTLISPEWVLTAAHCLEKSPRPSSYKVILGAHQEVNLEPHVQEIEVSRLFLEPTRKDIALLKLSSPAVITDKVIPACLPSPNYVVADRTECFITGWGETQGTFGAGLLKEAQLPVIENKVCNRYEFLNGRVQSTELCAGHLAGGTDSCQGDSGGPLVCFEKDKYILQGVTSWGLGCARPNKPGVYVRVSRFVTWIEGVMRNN
Chain of human plasmin (P00747 97-580 partner limits assumed): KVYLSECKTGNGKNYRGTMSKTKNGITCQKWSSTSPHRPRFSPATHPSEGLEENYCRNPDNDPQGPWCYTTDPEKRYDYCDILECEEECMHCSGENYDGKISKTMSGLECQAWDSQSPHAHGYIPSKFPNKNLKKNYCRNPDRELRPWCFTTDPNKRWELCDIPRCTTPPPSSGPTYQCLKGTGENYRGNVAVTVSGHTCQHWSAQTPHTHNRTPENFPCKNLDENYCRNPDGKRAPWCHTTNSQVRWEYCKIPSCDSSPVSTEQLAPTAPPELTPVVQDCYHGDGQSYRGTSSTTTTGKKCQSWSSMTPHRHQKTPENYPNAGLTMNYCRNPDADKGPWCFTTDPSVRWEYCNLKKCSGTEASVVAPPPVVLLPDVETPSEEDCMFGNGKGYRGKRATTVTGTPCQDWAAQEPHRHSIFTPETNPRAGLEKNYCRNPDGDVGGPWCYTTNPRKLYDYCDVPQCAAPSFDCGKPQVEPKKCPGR
Chain of human factor XIa (P03951 388-625 limits assumed): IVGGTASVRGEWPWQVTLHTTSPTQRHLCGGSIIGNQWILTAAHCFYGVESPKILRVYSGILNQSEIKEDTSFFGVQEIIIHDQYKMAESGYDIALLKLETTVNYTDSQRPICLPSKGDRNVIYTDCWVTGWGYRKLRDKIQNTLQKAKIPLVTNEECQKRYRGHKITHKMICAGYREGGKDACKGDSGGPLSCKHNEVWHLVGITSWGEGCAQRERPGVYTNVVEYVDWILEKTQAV
Chain of human factor XIa (P03951 19-387 partner limits assumed): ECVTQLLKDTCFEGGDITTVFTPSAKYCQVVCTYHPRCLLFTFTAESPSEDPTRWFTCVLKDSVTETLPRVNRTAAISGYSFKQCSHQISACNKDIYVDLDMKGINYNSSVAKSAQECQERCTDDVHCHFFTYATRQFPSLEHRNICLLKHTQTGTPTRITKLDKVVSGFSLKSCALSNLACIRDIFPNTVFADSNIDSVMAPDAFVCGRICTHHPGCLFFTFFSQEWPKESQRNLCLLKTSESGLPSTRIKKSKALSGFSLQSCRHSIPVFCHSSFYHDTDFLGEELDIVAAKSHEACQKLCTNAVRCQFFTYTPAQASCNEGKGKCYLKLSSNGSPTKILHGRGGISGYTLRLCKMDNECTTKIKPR
Chain of human tissue kallikrein (P06870 25-262): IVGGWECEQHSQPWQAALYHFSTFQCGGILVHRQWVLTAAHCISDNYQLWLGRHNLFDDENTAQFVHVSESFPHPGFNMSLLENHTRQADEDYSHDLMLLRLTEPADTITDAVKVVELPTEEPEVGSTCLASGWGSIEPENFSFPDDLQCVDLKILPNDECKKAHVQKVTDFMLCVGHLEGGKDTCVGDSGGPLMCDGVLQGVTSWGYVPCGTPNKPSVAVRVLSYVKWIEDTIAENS
Chain of human plasma kallikrein (P03952 20-638): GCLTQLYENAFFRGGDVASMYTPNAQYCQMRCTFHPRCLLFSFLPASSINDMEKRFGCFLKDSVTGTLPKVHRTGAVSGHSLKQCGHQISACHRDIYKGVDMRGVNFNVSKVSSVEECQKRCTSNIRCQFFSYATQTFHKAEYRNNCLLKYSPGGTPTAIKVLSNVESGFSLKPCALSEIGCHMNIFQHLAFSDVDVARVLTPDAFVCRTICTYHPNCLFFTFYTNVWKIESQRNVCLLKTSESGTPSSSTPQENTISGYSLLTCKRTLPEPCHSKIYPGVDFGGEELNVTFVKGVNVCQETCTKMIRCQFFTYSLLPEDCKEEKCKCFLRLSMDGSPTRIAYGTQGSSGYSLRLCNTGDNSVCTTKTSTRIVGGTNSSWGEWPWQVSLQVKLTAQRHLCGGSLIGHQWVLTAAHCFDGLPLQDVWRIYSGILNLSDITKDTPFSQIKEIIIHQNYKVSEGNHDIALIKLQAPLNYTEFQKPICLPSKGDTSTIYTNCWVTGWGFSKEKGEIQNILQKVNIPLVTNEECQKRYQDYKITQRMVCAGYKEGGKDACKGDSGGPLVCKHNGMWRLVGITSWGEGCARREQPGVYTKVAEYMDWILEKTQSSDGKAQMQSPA

- gelatinolytic activity by gelatin zymography (matriptase [1]; [6]): negligible activity
- gelatinolytic activity of complexed matriptase (matriptase [1]; after 5 min incubation at 37° C., versus uncomplexed matriptase): much weaker activity
- activity by cleavage of fluorescent substrate (matriptase [2]; [6]): negligible activity
- cleavage rate for fluorescent substrate, remaining (matriptase [2]; after 5 min incubation at 37° C.): 18%
B1: HAI-1: Kunitz-type serine protease inhibitor, cognate inhibitor of matriptase, co-purified from human milk (protein, UniProt O43278 36-529, looked up)
Kunitz-type protease …: GPPPAPPGLPAGADCLNSFTAGVPGFVLDTNASVSNGATFLESPTVRRGWDCVRACCTTQNCNLALVELQPDRGEDAIAACFLINCLYEQNFVCKFAPREGFINYLTREVYRSYRQLRTQGFGGSGIPKAWAGIDLKVQPQEPLVLKDVENTDWRLLRGDTDVRVERKDPNQVELWGLKEGTYLFQLTVTSSDHPEDTANVTVTVLSTKQTEDYCLASNKVGRCRGSFPRWYYDPTEQICKSFVYGGCLGNKNNYLREEECILACRGVQGGPLRGSSGAQATFPQGPSMERRHPVCSGTCQPTQFRCSNGCCIDSFLECDDTPNCPDASDEAACEKYTSGFDELQRIHFPSDKGHCVDLPDTGLCKESIPRWYYNPFSEHCARFTYGGCYGNKNNFEEEQQCLESCRGISKKDVFGLRREIPIPSTGSVEMAVAVFLVICIVVVVAILGYCFFKNQRKDFHGHHHHPPPTPASSTVSTTEDTEHLVYNHTTRPL

B2: BBI: soybean-derived Bowman-Birk inhibitor of serine proteases (protein)
chain: DDESSKPCCDQCACTKSNPPQCRCSDMRLNSCHSACKSCICALSYPAQCFCVDITDFCYEPCKPSEDDKEN
- effect on matriptase activity (matriptase [3]): decrease matriptase activity in a dose-dependent manner

B3: placenta bikunin: second Kunitz-type inhibitor with two Kunitz domains, isolated from human placenta (protein, UniProt O43291 28-252, looked up)
Kunitz-type protease …: ADRERSIHDFCLVSKVVGRCRASMPRWWYNVTDGSCQLFVYGGCDGNSNNYLTKEECLKKCATVTENATGDLATSRNAADSSVPSAPRRQDSEDHSSDMFNYEEYCTANAVTGPCRASFPRWYFDVERNSCNNFIYGGCRGNKNSYRSEEACMLRCFRQQENPPLPLGSKVVVLAGLFVMVLILFLGASMVYLIRVARRNQERALRTVWSSGDDKEQLVKNTYVL
- inhibition of human plasma kallikrein (human plasma kallikrein): strong inhibition
- inhibition of human plasmin (human plasmin): strong inhibition
- inhibition of human tissue kallikrein (human tissue kallikrein): strong inhibition
- inhibition of human factor XIa (human factor XIa): strong inhibition

B4: two-chain (active) form of matriptase, milk-derived, released from its complexes (protein)
chain 1: SFVVTSVVAFPTDSKTVQRTQDNSCSFGLHARGVELMRFTTPGFPDSPYPAHARCQWALRGDADSVLSLTFRSFDLASCDERGSDLVTVYNTLSPMEPHALVQLCGTYPPSYNLTFHSSQNVLLITLITNTERRHPGFEATFFQLPRMSSCGGRLRKAQGTFNSPYYPGHYPPNIDCTWNIEVPNNQHVKVRFKFFYLLEPRRACGTCPKDYVEINGEKYCGERSQFVVTSNSNKITVRFHSDQSYTDTGFLAEYLSYDSSDPCPGQFTCRTGRCIRKELRCDGWADCTDHSDELNCSCDAGHQFTCKNKFCKPLFWVCDSVNDCGDNSDEQGCSCPAQTFRCSNGKCLSKSQQCNGKDDCGDGSDEASCPKVNVVTCTKHTYRCLNGLCLSKGNPECDGKEDCSDGSDEKDCDCGLRSFTRQAR
chain 2: VVGGTDADEGEWPWQVSLHALGQGHICGASLISPNWLVSAAHCYIDDRGFRYSDPTQWTAFLGLHDQSQRSAPGVQERRLKRIISHPFFNDFTFDYDIALLELEKPAEYSSMVRPICLPDASHVFPAGKAIWVTGWGHTQYGGTGALILQKGEIRVINQTTCENLLPQQITPRMMCVGFLSGGVDSCQGDSGGPLSSVEADGRIFQAGVVSWGDGCAQRNKPGVYTRLPLFRDWIKENTGV
- matriptase activity by fluorescent substrate assay and zymography [4]: BBI can decrease matriptase activity in a dose-dependent manner
- cleavage rate of the fluorescent substrate BOC-Gln-Ala-Arg-7-amido-4-methylcoumarin after 5 min at 37° C., pH 8.5 [5]: the cleavage rate for fluorescent substrate was significantly reduced, down to 18%
- gelatin zymography and cleavage of fluorescent substrate after 30 and 60 min at 37° C., pH 8.5 [5]: negligible activity was observed by gelatin zymography (panel B) and by cleavage of fluorescent substrate
- rate of cleavage of a synthetic, fluorescent substrate [5]: the rate of cleavage of a synthetic, fluorescent substrate by matriptase was decreased following complex formation
